Laboratory results taken from patent US20100119506A1, “Effectors of PAR-2 Activation and Their Use in the Modulation of Inflammation” (BOEHRINGER INGELHEIM INTERNATIONAL GMBH, priority 2008, published 2010).
Entries after “also recorded” stand apart in the source; their conditions may differ.

Experiments:
[1] = target: T1, FLAG-tagged PAR-2 (Homo sapiens, UniProt P55085); assay: FLAG-PAR-2 cell-based cleavage assay (flow cytometry); conditions: dHLX bivalent Fab; trypsin 30 nM, 5 minutes
T1 construct: expressed in transfected cells; host or cells: HEK
T1 sequence (P55085 26-397): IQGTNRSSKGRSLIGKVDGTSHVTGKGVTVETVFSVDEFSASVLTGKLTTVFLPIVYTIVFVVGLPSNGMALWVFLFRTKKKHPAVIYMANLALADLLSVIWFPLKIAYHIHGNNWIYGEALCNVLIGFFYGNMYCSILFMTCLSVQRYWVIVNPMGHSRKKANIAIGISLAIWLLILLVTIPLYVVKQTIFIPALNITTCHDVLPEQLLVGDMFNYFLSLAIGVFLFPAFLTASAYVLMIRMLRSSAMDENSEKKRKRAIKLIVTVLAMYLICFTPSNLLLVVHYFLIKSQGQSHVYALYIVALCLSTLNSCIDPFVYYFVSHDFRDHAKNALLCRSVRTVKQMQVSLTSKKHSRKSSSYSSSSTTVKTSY
Procedure: To assess the ability of antibody Ab3777 to block trypsin mediated cleavage of the PAR-2 N-terminus, antibodies were tested in a FRET assay that measures an increase in fluorescence upon cleavage of a labeled peptide representing the N-terminus of PAR-2. […] To assess the ability of antibodies to block trypsin mediated cleavage of the PAR-2 N-terminus on cells, HEK transfectants over-expressing FLAG-tagged PAR-2 were treated with trypsin in the presence or absence of Ab3777 dHLX bivalent Fabs. […]
Detection of the FLAG-tag on the cell surface correlates with inhibitory activity.

[2] = system: labeled peptide representing the N-terminus of PAR-2; assay: FRET-based PAR-2 peptide cleavage assay (trypsin); format: biochemical
Procedure: To assess the ability of antibody Ab3777 to block trypsin mediated cleavage of the PAR-2 N-terminus, antibodies were tested in a FRET assay that measures an increase in fluorescence upon cleavage of a labeled peptide representing the N-terminus of PAR-2. […] To assess the ability of antibodies to block trypsin mediated cleavage of the PAR-2 N-terminus on cells, HEK transfectants over-expressing FLAG-tagged PAR-2 were treated with trypsin in the presence or absence of Ab3777 dHLX bivalent Fabs. Activation of PAR-2 results in cleavage/internalization of the receptor resulting in a loss of the FLAG epitope as detected by an antibody in a flow cytometry assay (FIG. 3).
Affinity matured and cross-cloned antibodies in the IgG4_Pro format were evaluated for cell binding, inhibition of trypsin induced calcium responses in a FLIPR assay, inhibition of PAR-2 peptide cleavage in a FRET assay and inhibition of PAR-2 cleavage in a cell based assay system. All candidates show excellent apparent affinity (EC50) for PAR-2 transfected cells and maximal efficacy and potency in all short term cellular assays (Table 4).

[3] = target: T2, PAR-2 (Homo sapiens, UniProt P55085); assay: Trypsin induced calcium response (FLIPR) in A549 cells; format: cell-based; set-up: expressing endogenous PAR-2; endogenous in cells; host or cells: A549; conditions: A549 cells
T2 sequence (P55085 26-397): T1 sequence (P55085 26-397)
Procedure: Using A549 cells, PAR-2 activation was measured by detecting the calcium response following trypsin stimulation. Fabs were tested in this assay for their ability to inhibit this response. […] Antibody concentrations are expressed as μg/ml (FIG. 6).
Thrombin activates PAR-1, whereas PAR-2 is activated by trypsin in A549 cells.

[4] = target: PAR-2; assay: Affinity for PAR-2 in phage display selection and affinity maturation; format: binding; conditions: initial selection, Fab
Text: Antibody phage display techniques were employed to pan for antibodies (Fab fragments) capable of immunospecifically binding to residues spanning the protease cleavage site at the N-terminal of PAR-2. […] The sequences of the heavy (IgG4) and light (lambda) chain variable regions of the antibody Ab3777 are presented below (CDR residues are underlined): […]

B1: Ab3777: parental anti-PAR-2 antibody from phage display; light chain SEQ ID NO:6, heavy chain SEQ ID NO:7 (antibody, V domains shown)
VH: QVQLVESGGGLVQPGGSLRLSCAASGFTFSSYAMNWVRQAPGKGLEWVSTISYSSSATSYADSVKGRFTISRDNSKNTLYLQMNSLRAEDTAVYYCARIQNDPMDVWGQGTLVTVSS
VL: DIELTQPPSVSVAPGQTARISCSGDNLGKKYVQWYQQKPGQAPVLVIYDDSNRPSGIPERFSGSNSGNTATLTISGTQAEDEADYYCSSWDVGSDGWVFGGGTKLTVLGQ
modifications: Antibody identified via phage display
- inhibition in cellular cleavage assay (in words) [1]: partial inhibition
- inhibition of trypsin cleavage of PAR-2 peptide (in words) [2]: partial inhibition; also recorded: partially block this cleavage in a transient manner
- activity in trypsin induced calcium response assay (in words) ([3]; IgG1 format): active but weaker
- inhibition in trypsin induced calcium response assay (in words) ([3]; bivalent Fab format): partial dose-dependent inhibition
- activity in trypsin induced calcium response assay (in words) ([3]; monovalent format): not active
- Kd [4]: 65 nM
